Target: T1, SALT TOLERANCE HOMOLOG2 (STH2) (Arabidopsis thaliana, UniProt Q9LQZ7 1-331, limits assumed)
T1 construct: also called G1482
T1 sequence: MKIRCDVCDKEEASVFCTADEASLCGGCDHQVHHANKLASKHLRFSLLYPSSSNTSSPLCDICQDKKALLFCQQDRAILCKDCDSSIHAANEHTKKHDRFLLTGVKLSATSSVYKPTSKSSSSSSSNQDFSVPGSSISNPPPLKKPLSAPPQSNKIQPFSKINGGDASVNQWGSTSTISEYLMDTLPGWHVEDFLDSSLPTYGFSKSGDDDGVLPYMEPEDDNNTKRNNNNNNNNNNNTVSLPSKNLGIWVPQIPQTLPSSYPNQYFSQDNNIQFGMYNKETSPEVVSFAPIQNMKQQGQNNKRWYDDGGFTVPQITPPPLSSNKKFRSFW
Assay: in vitro and protoplast based studies (methods not described)

B1: G1988 (other)
chain: MVSFCELCGAEADLHCAADSAFLCRSCDAKFHASNFLFARHFRRVICPNCKSLTQNFVSGPLLPWPPRTTCCSESSSSSCCSSLDCVSSSELSSTTRDVNRARGRENRVNAKAVAVTVADGIFVNWCGKLGLNRDLTNAVVSYASLALAVETRPRATKRVFLAAAFWFGVKNTTTWQNLKKVEDVTGVSAGMIRAVESKLARAMTQQLRRWRVDSEEGWAENDNV
notes: also called B-box zinc finger transcription factor G1988
B1: binds.

Source: patent US20200181634A1 (MENDEL BIOTECHNOLOGY, published 2020)
